# Results taken from a protein production outcome set (Wang et al. 2014).
# Assay: label from the status in PepcDB records
row,Sequence,protein production
1,MTSKSEWSNARRIVIILADVLLYNLSIILGFMVKFGREIPSFNFVAYEKSAIYISIFFIFLNLLLGAYIFYNRKISDIIFVTVIGQILMTLTIMIVTFAGRWFTFPRSVLGYSFIIGIIVLSLWRILVYYLYLKVSNERKVVLLGKENQVMRSIQNFMSDKNNKHKVTSVVVSNYYENLKKIIDEIDIVYISSNVDENEKVKLYQLIVKHKKKIFLDTSFENLIMLKPNMMNFEDESIIEVSNFEIQPEENFIKRLFDILVSVCLFVITSPLMLIAAILVKATSPGPVIYKQTRITLDQREFSILKFRTMSATAEAKSGPVLSTSNDSRVTTVGKYLRALRIDELPQLINVIRGDMSIVGPRPERPFFVDQFNQENPNYYLRHNVRAGITGYAQVYGKYASDYNSKLNFDLLYIKNYSLLLDMKILLQTIKILFDKVSSRGLDESEEREELTMDYCKENAIRIYR,failed
2,MNFIVIGAGNIGSGIAQNLLEDGHEVEIADKSRESLNRIRGRNPKIRTREFDVMDRSAYRMLNDYDASVSALPGSIGMQFLKNVAKMGKIVVDVSYMEEDPYDLNGIAQSAGTIIVPDMGFAPGLTNAIVGYFSADLDQIRNVKIYVGGIPEKPVPPLDYTITWSVEG,failed
3,MSLFEAILIILVLIIISAVISSSEISLAGARKLKLHSLAKDGDIRAEKVMRLQEQPGRFITMVQIGLNMVAILGGVVGESAITPYLAKLLAQYSQAEWTESTASWLSFALVTSAFVLLADLMPKRIAMTYPEQVAVRTINIMLCLITIFKPLVLLFDSIANLLFRLFGISTVRQDNMTSEDIVAVVDAGAKAGILKAQEHYLIENVFEMQERRVTSTMTTRENIIFLDRKDNREQVLATLGEDPYSKVLICDNGLDKILGYIETHDLLTQYLKNDHVSLVDSRLLRKPVFIPDTLSLYEVLELFKSAGEDFAVIVNEYALVVGILTINDVMSIVMGELVSTEEEQIMRRNEDSWLIDGATPLEDVMRALNIHTFPRDENYETIGGFMMYMLRKIPKKTDFVLYDKYKFEIIDTENFRIDQLMVSFRKDV,failed
4,MQAQDATQLLEGVPLPLVLIGPDERIRAANAPAQRLFGAASVARHYVMAMRQPALLDAIEGAIRLDRPGRARYIITGPSREVTYRATVTPVRIHGESCALCAFEDITEQEQMGAIRRDFVANVSHELRTPLTALLGFIETLQGAARDDPAARSRFLGIMAREAGRMNRLVQDLLSLSRVESEERVRPKTPVDVTAVIGQAIAALRPMAEAAGVEIQRQGEAGPILLPGDPDQLTQVFHNLIENAVKYGASGKLVTVGISRDAEGLARLGPAVRIEVVDRGEGIDAIHLPRLTERFYRVDNHRSREKGGTGLGLAIVKHIVNRHRGRFLIESELGQGSRFIVTLPLA,failed
5,MTRTTAVGFDRVTKGYGDVRAVDGLTLALHPGETVALLGPNGAGKSTTLDLLLGLRRPDAGTVHVFGGEPREAVVAGRVGAMLQSGGLMDEVTVAELVRLGCALHPRAYPAADVLARAGLTKIADRRVDKLSGGQAQRVRFALATAGDSDLIVLDEPTTGMDVTARQAFWATMREQADQGRTVLFATHYLEEADAIADRVLVLHRGRLLADGTAAEIKARAGTRRISFDLDGGPDASPDASPDGSRNGTVDEATLRALPHLTALDVSGRTVRIQSADADATVYALYGLGLYPRNLEVAGLGLEQAFVALTAAEEAKQP,failed
6,MSFGNEKGQDIIHRKEVEFFVKNLKDYFSNINKYVVILWDEEGIILEFKENGGNLLGYTPEQIEGKKWPDILTDGKDKEQTTEINKKLVNSKIVRYYINSIKDVNGTSKIFLWCNLKLENVQSDKKIFLSVGFNLDSIDNLKEKTDESKFELDTLNEKKENLEFKVTKDDLILKQKDDTIRDYKSKLEFLAFYDELTGLPNKNSLIRWLNLKVSQMDCIDTYLIFLEVRDLEKLNVTYGYDLVDELIIHISKRIKDIAGEGNKAFKIGFDRFAIICKSENISDFIERMLSQLLLPYNVNGNLIRVNFNIGAAQIENSNEAAANLMRRCDLALIKAKEEGLNEYVIFKPSIEIQTLKEGILERELRNGIELNEFIVFYQPFVKLENDKICGFEALLRWYYLKSVFVSPLEFIPVAEKYGLIIDLGNMVLKQSLKAGKILKKYYDDEFTISINISPKQFIDKRFVKNTIEILENEKLQDIRLRFEITEKVAIENIDYTIRIMNEFKKYNVTFALDDFGVEYSSLNYLRKLPIEAVKIDKSFVQDINDHDTYFIVETIVKLCKKLNLKTVIEGVETQRQYQIIKELGCDYAQGYFIAKPLPINELINLVGKYKILE,failed
7,RTKDQYYELRDFALGTSVRIVVSSQKINPRTIAEAILEDMKRITYKFSFTDERSVVKKINDHPNEWVEVDEETYSLIKAACAFAELTDGAFDPTVGRLLELWGFTGNYENLRVPSREEIEEALKHTGYKNVLFDDKNMRVMVKNGVKIDLGGIAKGYALDRARQIALSFDENATGFVEAGGDVRIIGPKFGKYPWVIGVKDPRGDDVIDYIYLKSGAVATSGDYERYFVVDGVRYHHILDPSTGYPARGVWSVTIIAEDATTADALSTAGFVMAGKDWRKVVLDFPNMGAHLLIVLEGGAIERSETFKLFERE,not failed
8,MDETGNLTVSSATCHDTIDDFRNQVYSTLYSMISVVGFFGNGFVLYVLIKTYHKKSAFQVYMINLAVADLLCVCTLPLRVVYYVHKGIWLFGDFLCRLSTYALYVNLYCSIFFMTAMSFFRCIAIVFPVQNINLVTQKKARFVCVGIWIFVILTSSPFLMAKPQKDEKNNTKCFEPPQDNQTKNHVLVLHYVSLFVGFIIPFVIIIVCYTMIILTLLKKSMKKNLSSHKKAIGMIMVVTAAFLVSFMPYHIQRTIHLHFLHNETKPCDSVLRMQKSVVITLSLAASNCCFDPLLYFFSGGNFRKRLSTFRKHSLSSVTYVPRKKASLPEKGEEICKV,failed
9,MSHTKIMSTDQLETQITELDNLPEHREIVTFMRRSAPLNTSQRSALEQYQDLILEYPVGDLRQHFEHPEHPLTVEIGFGMGRSLVLMAKAHPERNFVGIEVHVPGIAQCVYEAGMAGLKNLRVLDADAIQVLREMPDNSINCVQLYFPDPWQKKRHFKRRFVIHERMQLVEQKLELGGTFHAATDWEPYAEWMLDVLDNRPALENLAGKGNSYPRPEWRPQTKFERRGIESGHKINDFIFKKIGS,failed
10,MTISSRKAALAAVLLASVAVPAAAEPVFNRIASFPVAENLPGDKDKLSQTSAEIITATDDGNTLIYSDSPLGAIGFIDITDAKAPKSGGALMMDGEPTSVTSSAGKALVAVNTSESKARPSGRLAIVDVATKKIENTCDLGGQPDSIALNKDKTLGTIAIEDERDEDVNDGNIPQMPAGDLVVFRVKNGAVDCGSIKHVTLTDLAGVVPEDPEPEFVAFNGLNEIALTLQENNEIVIIDANTAEVKTHFSAGSVDLTGIDTKRDGALKFTGESKGVLREPDAVKWLDDNRLVVANEGDYHGGSRGFTIFDKTGKLLYESGASFERAVAHIGHYPESRSESKGVEPEGLEAAKFGDDQYFFLLAERASVVGVYKDTGADPELVQLLPSGISPEGGVAIPARNLFATANELDLGKDGGVRSHVMIYERSEGEKAYPQIVSAEKDGNPIGFAALSGLAAVPGKPGMLYAVSDSVLGSQPTIYTIDATKKPAVITDRLVVKRDGAPAQKLDIEGIAAAADGSFWLASEGYSERLVPHALYNVNAKGDIRAEIALPKELTANEIRFGFEGVTIIGTGDDATLWMAVQREWGDDEKGFVKLVSYNPKKKEWGAVRYPLDKTESGWVGLSEISAHGDSVYIIERDNLVGDAAKLKKLYKVAISELKPAKLGGELPVVKKTEAHDFLGELKTATNGYVLDKLEGFTFDASGKPYAVTDNDGVSDSSGETLFFPVELSATN,failed
11,MGQIPPQPVRRVLPLMVVPGNGQKWRNRTETEEAMGDTYRDPVDHLRTTRPLAGESLIDVVHWPGYLLIVAGVVGGVGALAAFGTGHHAEGMTFGVVAIVVTVVGLAWLAFEHRRIRKIADRWYTEHPEVRRQRLAG,failed
12,MVVSTDQAHSLGDVLGIAVPPTGQGDPVRVLAYDPEAGGGFLDALALDTLALLEGRWLHVVETLDRRFPGSELSSIAPEELCALPGIQEVLGLHAVGELAAARRWDRIVVDCASTADALRMLTLPATFGLYVERAWPRHRRLSIGADDGRSAVLAELLERIRASVERLSTLLTDGALVSAHLVLTPERVVAAEAVRTLGSLALMGVRVEELLVNQLLVQDENYEYRSLPDHPAFHWYAERIGEQRAVLDDLDATIGDVALVLVPHLAGEPIGPKALGGLLDSARRRQGSAPPGPLQPIVDLESGSGLASIYRLRLALPQLDPGTLTLGRADDDLIVSAGGMRRRVRLASVLRRCTVLDAHLRGGELTVRFRPNPEVWPT,failed
13,EIAQVTSAYVASGSEQLSLAPGQLILILKKNTSGWWQGELQARGKKRQKGWFPASHVKLLGPSSERA,not failed
